# Laboratory results from patent US12458630 (University of California, dated 2025).
# B1: IKKα W651A-Flag (LIR-mutated IKKα) (enzyme)
# chain: MERPPGLRPGAGGPWEMRERLGTGGFGNVCLYQHRELDLKIAIKSCRLELSTKNRERWCHEIQIMKKLNHANVVKACDVPEELNILIHDVPLLAMEYCSGGDLRKLLNKPENCCGLKESQILSLLSDIGSGIRYLHENKIIHRDLKPENIVLQDVGGKIIHKIIDLGYAKDVDQGSLCTSFVGTLQYLAPELFENKPYTATVDYWSFGTMVFECIAGYRPFLHHLQPFTWHEKIKKKDPKCIFACEEMSGEVRFSSHLPQPNSLCSLVVEPMENWLQLMLNWDPQQRGGPVDLTLKQPRCFVLMDHILNLKIVHILNMTSAKIISFLLPPDESLHSLQSRIERETGINTGSQELLSETGISLDPRKPASQCVLDGVRGCDSYMVYLFDKSKTVYEGPFASRSLSDCVNYIVQDSKIQLPIIQLRKVWAEAVHYVSGLKEDYSRLFQGQRAAMLSLLRYNANLTKMKNTLISASQQLKAKLEFFHKSIQLDLERYSEQMTYGISSEKMLKAWKEMEEKAIHYAEVGVIGYLEDQIMSLHAEIMELQKSPYGRRQGDLMESLEQRAIDLYKQLKHRPSDHSYSDSTEMVKIIVHTVQSQDRVLKELFGHLSKLLGCKQKIIDLLPKVEVALSNIKEADNTVMFMQGKRQKEIAHLLKIACTQSSARSLVGSSLEGAVTPQTSAWLPPTSAEHDHSLSCVVTPQDGETSAQMIEENLNCLGHLSTIIHEANEEQGNSMMNLDWSWLTE
# notes: also called LIR-mutated IKKα variant; pCDH-CMV-MCS-EF1-Puro-IKKα W651A-Flag; not shown: Flag tag
# B2: endogenous syntaxin 17 (STX17) of MIA PaCa-2 cells (other, human, UniProt P56962 2-302, looked up)
# chain: SEDEEKVKLRRLEPAIQKFIKIVIPTDLERLRKHQINIEKYQRCRIWDKLHEEHINAGRTVQQLRSNIREIEKLCLKVRKDDLVLLKRMIDPVKEEASAATAEFLQLHLESVEELKKQFNDEETLLQPPLTRSMTVGGAFHTTEAEASSQSLTQIYALPEIPQDQNAAESWETLEADLIELSQLVTDFSLLVNSQQEKIDSIADHVNSAAVNVEEGTKNLGKAAKYKLAALPVAGALIGGMVGGPIGLLAGFKVAGIAAALGGGVLGFTGGKLIQRKKQKMMEKLTSSCPDLPSQTDKKCS
# notes: also called endogenous STX17
# B3: IKKα Y568A-Flag (LIR-mutated IKKα) (enzyme)
# chain: MERPPGLRPGAGGPWEMRERLGTGGFGNVCLYQHRELDLKIAIKSCRLELSTKNRERWCHEIQIMKKLNHANVVKACDVPEELNILIHDVPLLAMEYCSGGDLRKLLNKPENCCGLKESQILSLLSDIGSGIRYLHENKIIHRDLKPENIVLQDVGGKIIHKIIDLGYAKDVDQGSLCTSFVGTLQYLAPELFENKPYTATVDYWSFGTMVFECIAGYRPFLHHLQPFTWHEKIKKKDPKCIFACEEMSGEVRFSSHLPQPNSLCSLVVEPMENWLQLMLNWDPQQRGGPVDLTLKQPRCFVLMDHILNLKIVHILNMTSAKIISFLLPPDESLHSLQSRIERETGINTGSQELLSETGISLDPRKPASQCVLDGVRGCDSYMVYLFDKSKTVYEGPFASRSLSDCVNYIVQDSKIQLPIIQLRKVWAEAVHYVSGLKEDYSRLFQGQRAAMLSLLRYNANLTKMKNTLISASQQLKAKLEFFHKSIQLDLERYSEQMTYGISSEKMLKAWKEMEEKAIHYAEVGVIGYLEDQIMSLHAEIMELQKSPYGRRQGDLMESLEQRAIDLAKQLKHRPSDHSYSDSTEMVKIIVHTVQSQDRVLKELFGHLSKLLGCKQKIIDLLPKVEVALSNIKEADNTVMFMQGKRQKEIWHLLKIACTQSSARSLVGSSLEGAVTPQTSAWLPPTSAEHDHSLSCVVTPQDGETSAQMIEENLNCLGHLSTIIHEANEEQGNSMMNLDWSWLTE
# notes: also called LIR-mutated IKKα variant; pCDH-CMV-MCS-EF1-Puro-IKKα Y568A-Flag; not shown: Flag tag
# Legend:
# [1] = molecular target: endogenous LC3 (microtubule-associated protein light chain 3) of MIA PaCa-2 cells (human, UniProt Q9GZQ8 1-120); assay: co-IP in starved IKKα-ablated MIA PaCa-2 cells (FIG. 14C)
# [2] = molecular target: B3; assay: as above
# [3] = molecular target: B1; assay: as above
# [4] = molecular target: B2; assay: co-IP with STX17, IKKα-ablated MIA PaCa-2 cells re-expressing wt IKKα (FIG. 14D)
binder,measurement,setting,value
B1,binding result,[1],no binding
B2,binding result,[2],no binding
same,binding result,[3],no binding
B3,binding result,[1],no binding
"endogenous VAMP8 of MIA PaCa-2 cells (other, human, UniProt Q9BV40 1-100, looked up) MEEASEGGGNDRVRNLQSEVEGVKNIMTQNVERILARGENLEHLRNKTEDLEATSEHFKTTSQKVARKFWWKNVKMIVLICVIVFIIILFIVLFATGAFS",binding result,[4],binds
